Results reported in paper PMC12376085.

Biological target: HLA-A2/β2M complex on T2 cells (no pulsed peptide) (human (endogenous in T2) | human)
Assay: flow cytometry on cells

Binder	MFI of surface HLA-A2 on peptide-pulsed T2 cells
RMFPNAPYL [… peptide (WT1 126–134)]	74200
ILSLELMKL [… peptide]	53900
